In patent US20210284747A1 (CAPELLA BIOSCIENCE, published 2021):
Residue numbers refer to the chain shown, from its start.

T1: Recombinant human soluble LIGHT, amino acids 74-240 (R&D Systems 664-LI) (human, UniProt O43557 74-240)
T1 construct: range 74-240; Glycosylated trimer by native MS; also called 74-240 LIGHT
T1 chain: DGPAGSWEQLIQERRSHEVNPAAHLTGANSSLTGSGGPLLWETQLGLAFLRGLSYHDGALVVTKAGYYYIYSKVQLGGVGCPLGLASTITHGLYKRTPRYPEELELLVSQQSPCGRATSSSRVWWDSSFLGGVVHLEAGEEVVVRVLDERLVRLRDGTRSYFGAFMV

B1: 3B04 chimeric IgG4 mAb (antibody, V domains shown)
VH: QVQLQQPGAELVRPGASVTLSCKASGYTFTDYEMHWVKQTPVHGLEWIGEIDPETGDTAYSQKFKGKATLTADKSSSTAYMEFRSLTSEDSAVYYCSRETDYFFDYWGQGTTLTVSS
VL: DIQMTQTPASLSASVGETVTITCGASENIYGALNWYQRKQGKSPQLLIYGATNLADGMSSRFSGSGSGRQYSLKISSLHPDDFATYYCQNVLTTPWTFGGGTKLEIK
notes: also called Parental 3B04
B2: 3D12 chimeric IgG4 mAb (antibody, V domains shown)
VH: B1 VH with G26D, Y32S, M34I, D57G, S61N, F83L
VL: B1 VL with T7S, F83V, T93S
notes: Chimeric human IgG4 (S-to-P, L-to-E) with human CL, as m1; also called Parental 3D12; 03D12

Tests used:
[1] = molecular target: T1, Recombinant human soluble LIGHT, amino …; test: summary statement comparing soluble LIGHT binding with membrane LIGHT binding; soluble LIGHT preparation not specified
[2] = molecular target: T2, Human LIGHT stably expressed on EL4 cells (EL4-LIGHT) (human, UniProt O43557 1-240); test: flow cytometry competition on EL4-LIGHT cells, co-incubation 40 min 4 C; blocked ligand DcR3-Fc-AF647 0.8 ug/ml; same IC50 as 0.020ug/ml, second unit printed
T2 construct: whole, on cells; also called membrane LIGHT
Description: (§1) EL4-LIGHT cells were co-incubated with Alexa Fluor 647 conjugated DcR3-Fc (DcR3-Fc-AF647; 0.8 μg/ml) and graded concentrations (31 μg/ml to 128 μg/ml) of anti-membrane LIGHT antibodies (3B04, 03D12 and 02B111) for 40 min at 4° C. A control, of a mAb that binds both soluble and membrane LIGHT was included (F19 from EP2292663). The samples were washed three times and flow cytometry analysis was performed. Specific mean fluorescence intensity (MFI) obtained from the binding of DcR3-Fc-AF647 to LIGHT on EL4 cells were used to determine the levels of competition binding.

[3] = molecular target: T2, Human LIGHT stably expressed on EL4 …; test: flow cytometry competition on EL4-LIGHT cells, co-incubation 40 min 4 C; blocked ligand DcR3-Fc-AF647 0.8 ug/ml; displacement is partial
Description: as §1

[4] = molecular target: LIGHT without residues 81-84, stably expressed on EL4 cells (EL4-NC-LIGHT); test: cell-based or functional assay
[5] = molecular target: T2, Human LIGHT stably expressed on EL4 …; test: KD calculated from the EC50 on EL4-LIGHT cells (Table 7)
[6] = molecular target: T2, Human LIGHT stably expressed on EL4 …; test: flow cytometry, EL4-LIGHT cells, against F19 and F23
[7] = molecular target: T2, Human LIGHT stably expressed on EL4 …; test: flow cytometry, EL4-LIGHT cells
Description: The EC50 of the 7 mAbs were calculated from binding to EL4-LIGHT cells (FIG. 1). […] Non-linear regression analysis was performed to determine the functional binding affinity measurement or EC50 for each mAb. A range of functional affinities was observed.

[8] = molecular target: T2, Human LIGHT stably expressed on EL4 …; test: flow cytometry competition on EL4-LIGHT cells, co-incubation 40 min 4 C; blocked ligand DcR3-Fc-AF647 0.8 ug/ml; same IC50 as 0.031ug/ml, second unit printed
Description: as §1

T2 sequence (O43557 whole entry): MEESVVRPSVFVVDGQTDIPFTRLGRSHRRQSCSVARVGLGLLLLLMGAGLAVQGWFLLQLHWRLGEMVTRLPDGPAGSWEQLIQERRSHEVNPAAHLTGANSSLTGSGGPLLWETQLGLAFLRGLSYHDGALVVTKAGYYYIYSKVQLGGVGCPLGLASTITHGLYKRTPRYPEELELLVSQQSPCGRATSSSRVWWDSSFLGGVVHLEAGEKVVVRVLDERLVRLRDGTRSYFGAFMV

| Binder | fold less specific to soluble LIGHT than membrane LIGHT [1] [fold] | IC50 [2] [nM] | IC50 [3] [µg/mL] | IC50, inhibition of IL-8 secretion, HT-29 + EL4-NC-LIGHT cells [4] [nM] | Kd [5] [nM] | binding ratio, mAb to LIGHT trimer [6] [mAb per LIGHT trimer] | EC50 [7] [nM] | IC50 [8] [nM] |
| --- | --- | --- | --- | --- | --- | --- | --- | --- |
| B1 | > 100 | 0.138 | 0.02 | 0.2 | 0.1 | 1 | 0.095 | – |
| B2 | – | – | 0.031 | 0.1 | 0.07 | 1 | 0.07 | 0.214 |
